Assay results: patent US20260242478A1 (published 2026)
Where no end group is shown, it is not given here.

B1: Phage-1800 (peptide, not shown: large carriers)
peptide: ESRLCVPAWMCAGF
notes: Clonal phage supernatant; also called Peptide-270
B2: Phage-3111 (peptide)
peptide: IEIMCMPRWMCDGF
notes: Clonal phage of the peptide-180 library; not shown: pIII filament protein of the bacteriophage, fused to the peptide
B3: Phage-1802 (peptide, not shown: large carriers)
peptide: LHVYCVPEWMCAGF
notes: Clonal phage supernatant; also called Peptide-272
B4: Phage-3216 (peptide)
peptide: VEPLCVPSWMCQGI
notes: not shown: pIII filament protein of the bacteriophage
B5: Phage-3217 (peptide)
peptide: IELFCKPAWMCDGF
notes: as for B4
B6: Phage-3218 (peptide)
peptide: DVHLCKPSWMCAGF
modifications: cysteine pairing not given here; also: fused to phage pIII, sequence not given here
notes: as for B4
B7: Phage-3113 (peptide)
peptide: NGVVCQPPWMCFGF
notes: as for B2
B8: Phage-3114 (peptide)
peptide: VPRYCVPQWMCAAF
notes: as for B2
B9: Phage-3104 (peptide)
peptide: GEVLCRPAWMCSGF
notes: as for B2
B10: Phage-3223 (peptide)
peptide: PQWMCKPEWMCNGF
notes: as for B4
B11: Phage-3109 (peptide)
peptide: VEAMCKPWWMCEGL
notes: as for B2
B12: Phage-3108 (peptide)
peptide: SEVVCVPTWMCTGF
notes: as for B2
B13: Phage-3215 (peptide)
peptide: LDLRCQPPWMCMGF
notes: as for B4
B14: Phage-3222 (peptide)
peptide: MELKCVPKWMCAGF
modifications: cysteine pairing not given here; also: fused to phage pIII, sequence not given here
notes: as for B4
B15: Phage-3105 (peptide)
peptide: QEIRCEPIWMCWGF
notes: as for B2
B16: Phage-3220 (peptide)
peptide: IPRACIPAWMCQGF
notes: as for B4
B17: Phage-3214 (peptide)
peptide: MAPYCVPSWMCWGF
notes: as for B4
B18: Phage-3110 (peptide)
peptide: VVQLCRPSWMCQGF
notes: as for B2
B19: Phage-3107 (peptide)
peptide: PVAVCKPEWMCIGF
notes: as for B2
B20: Phage-3219 (peptide)
peptide: DQVMCKPIWMCEGF
notes: as for B4
B21: Phage-3233 (peptide)
peptide: PYAMCEPAWMCSGF
modifications: cysteine pairing not given here; also: fused to phage pIII, fusion site not given here
notes: also called Peptide-180 library clone
B22: Phage-3225 (peptide)
peptide: GEVLCRPIWMCNGF
notes: as for B4
B23: Phage-3221 (peptide)
peptide: LQILCKPQWMCEGL
notes: as for B4
B24: Phage-3112 (peptide)
peptide: EPQMCIPRWMCDGF
notes: as for B2
B25: Phage-3102 (peptide)
peptide: DFAYCKPEWMCVGF
notes: as for B2
B26: Phage-3103 (peptide)
peptide: GEILCRPAWMCYGF
notes: as for B2
B27: Phage-3224 (peptide)
peptide: ITALCKPAWMCDGF
notes: as for B4
B28: Phage-3213 (peptide)
peptide: AIAMCVPSWMCTGL
modifications: cysteine pairing not given here; also: fused to phage pIII, sequence not given here
notes: as for B4
B29: Phage-3106 (peptide)
peptide: NPMYCKPSWMCEGF
notes: as for B2

Assays:
[1] = molecular target: T1, Anti-PSMA Fab (SEQ ID NOs: 19, 20); assay: phage binding ELISA; biotinylated PSMA Fab on neutravidin plate, clonal phage supernatant, anti-M13 HRP detection;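 further: wells were preincubated with blocking buffer either containing PSMA antigen or without it before crude phage supernatant was added, briefly incubated, then washed prior to detection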
T1 construct: also called 006 PSMA Fab
Experimental: (§1) Clonal phage were harvested as crude supernatants and screened via standard ELISAs. […] Prior to the addition of clonal phage. wells were incubated with blocking buffer and PSMA antigen or blocking buffer alone. Without washing or aspirating, clonal phage supernatants were then added to the wells and incubated for a short time. Wells were then washed followed by detection of bound phage using a horse radish conjugated anti-M13 antibody.

[2] = molecular target: T1, Anti-PSMA Fab (SEQ ID NOs: 19, 20); assay: phage binding ELISA; biotinylated PSMA Fab on neutravidin plate pre-incubated with PSMA antigen (competitor), anti-M13 HRP detection;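 further: competition ELISA where clonal phage supernatants were added to wells preincubated with PSMA antigen or with blocking buffer only as control, bound phage read via HRP-coupled anti-M13 antibody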
Experimental: as §1

[3] = molecular target: T2, PSMA Fab (biotinylated (site not stated)); assay: clonal phage supernatant ELISA on biotinylated PSMA Fab captured on neutravidin; anti-M13-HRP detection
T2 construct: Biotinylated PSMA Fab captured on neutravidin coated plates for the clonal phage ELISA; also called Anti-PSMA Fab; 006 PSMA Fab

[4] = molecular target: T2, PSMA Fab; assay: clonal phage supernatant ELISA on PSMA Fab pre-incubated with PSMA antigen as competitor; anti-M13-HRP detection
Experimental: as §1

[5] = molecular target: T3, PSMA Fab (biotinylated (site not stated)); assay: clonal phage ELISA on plate-bound PSMA Fab pre-incubated with PSMA antigen as competitor
T3 construct: Biotinylated PSMA Fab captured on neutravidin coated plates in the phage ELISA; also called Anti-PSMA Fab; 006 PSMA Fab

[6] = molecular target: T3, PSMA Fab; assay: clonal phage ELISA on biotinylated PSMA Fab captured on neutravidin; anti-M13 HRP detection
Experimental: as §1

[7] = molecular target: T4, PSMA Fab (biotinylated (site not stated)); assay: clonal phage ELISA; biotinylated PSMA Fab on neutravidin plate, blocking buffer alone; anti-M13 HRP detection;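 further: crude clonal phage supernatants added without washing to wells pretreated with blocking buffer with or without PSMA antigen, short incubation, then washed before detecting bound phage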
T4 construct: The panning ELISA names only 'biotinylated PSMA Fab' captured on neutravidin coated plates; also called Anti-PSMA Fab; 006 PSMA Fab

[8] = molecular target: T4, PSMA Fab; assay: clonal phage ELISA; biotinylated PSMA Fab on neutravidin plate, wells pre-incubated with PSMA antigen as competitor; anti-M13 HRP detection;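 further: crude clonal phage supernatants added to antigen-treated wells without a wash, incubated briefly, then bound phage read out via horse radish–conjugated anti-M13 antibody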
Experimental: as §1

| Binder | Phage binding ELISA signal, Anti-PSMA Fab [3] | Phage binding ELISA signal, Anti-PSMA Fab with PSMA antigen [4] | phage binding ELISA signal [5] | phage binding ELISA signal [6] | further results |
| --- | --- | --- | --- | --- | --- |
| B1 | – | – | – | – | Anti-PSMA Fab (SEQ ID NOs: 19, 20) signal [1]: 2.41; Anti-PSMA Fab signal in the presence of PSMA [2]: 0.103 |
| EDILCKPKWMCEGF (peptide, not shown: large carriers, Clonal phage supernatant) [Phage-1801] | – | – | – | – | Anti-PSMA Fab (SEQ ID NOs: 19, 20) signal [1]: 2.4; Anti-PSMA Fab signal in the presence of PSMA [2]: 0.109 |
| B2 | 2.08 | 0.101 | – | – | – |
| B3 | – | – | – | – | Anti-PSMA Fab (SEQ ID NOs: 19, 20) signal [1]: 2.38; Anti-PSMA Fab signal in the presence of PSMA [2]: 0.109 |
| B4 | – | – | 0.076 | 1.97 | – |
| B5 | – | – | 0.111 | 1.97 | – |
| LTVLCEPAWMCVGF (also called Peptide-180 library clone) [Phage-3226] | – | – | – | – | Phage binding ELISA signal, Anti-PSMA Fab [7]: 1.95; Phage binding ELISA signal, Anti-PSMA Fab with PSMA antigen [8]: 0.0827 |
| B6 | – | – | 0.0706 | 1.96 | – |
| B7 | 2.08 | 0.0794 | – | – | – |
| B8 | 2.08 | 0.0864 | – | – | – |
| B9 | 2.09 | 0.11 | – | – | – |
| B10 | – | – | 0.0807 | 1.96 | – |
| B11 | 2.08 | 0.0719 | – | – | – |
| B12 | 2.08 | 0.0805 | – | – | – |
| B13 | – | – | 0.0778 | 1.97 | – |
| B14 | – | – | 0.0684 | 1.96 | – |
| B15 | 2.09 | 0.147 | – | – | – |
| B16 | – | – | 0.101 | 1.96 | – |
| B17 | – | – | 0.145 | 1.97 | – |

| Binder | Phage binding ELISA signal, Anti-PSMA Fab [3] | Phage binding ELISA signal, Anti-PSMA Fab with PSMA antigen [4] | phage binding ELISA signal [5] | phage binding ELISA signal [6] | further results |
| --- | --- | --- | --- | --- | --- |
| B18 | 2.08 | 0.281 | – | – | – |
| B19 | 2.08 | 0.105 | – | – | – |
| ITPLCSPAWMCQGL (also called Peptide-180 library clone) [Phage-3229] | – | – | – | – | Phage binding ELISA signal, Anti-PSMA Fab [7]: 1.95; Phage binding ELISA signal, Anti-PSMA Fab with PSMA antigen [8]: 0.055 |
| B20 | – | – | 0.0928 | 1.96 | – |
| B21 | – | – | – | – | Phage binding ELISA signal, Anti-PSMA Fab [7]: 1.95; Phage binding ELISA signal, Anti-PSMA Fab with PSMA antigen [8]: 0.0697 |
| B22 | – | – | 0.123 | 1.95 | – |
| VGHVCLPPWMCTGF (also called Peptide-180 library clone) [Phage-3228] | – | – | – | – | Phage binding ELISA signal, Anti-PSMA Fab [7]: 1.95; Phage binding ELISA signal, Anti-PSMA Fab with PSMA antigen [8]: 0.0697 |
| VTAYCVPPWMCAVF (also called Peptide-180 library clone) [Phage-3231] | – | – | – | – | Phage binding ELISA signal, Anti-PSMA Fab [7]: 1.95; Phage binding ELISA signal, Anti-PSMA Fab with PSMA antigen [8]: 0.102 |
| B23 | – | – | 0.0882 | 1.96 | – |
| B24 | 2.08 | 0.135 | – | – | – |
| B25 | 2.09 | 0.0844 | – | – | – |
| LGIYCVPEWMCQGF (also called Peptide-180 library clone) [Phage-3230] | – | – | – | – | Phage binding ELISA signal, Anti-PSMA Fab [7]: 1.95; Phage binding ELISA signal, Anti-PSMA Fab with PSMA antigen [8]: 0.0818 |
| B26 | 2.09 | 0.119 | – | – | – |
| B27 | – | – | 0.109 | 1.96 | – |
| EEPLCRPVWMCEGF (peptide, not shown: large carriers, Clonal phage supernatant) [Phage-1799] | – | – | – | – | Anti-PSMA Fab (SEQ ID NOs: 19, 20) signal [1]: 2.41; Anti-PSMA Fab signal in the presence of PSMA [2]: 0.117 |
| B28 | – | – | 0.0711 | 1.97 | – |
| PIVKCSPAWMCSGF (also called Peptide-180 library clone) [Phage-3227] | – | – | – | – | Phage binding ELISA signal, Anti-PSMA Fab [7]: 1.95; Phage binding ELISA signal, Anti-PSMA Fab with PSMA antigen [8]: 0.0757 |
| B29 | 2.08 | 0.0958 | – | – | – |
| IVKACKPEWMCVGF (also called Peptide-180 library clone) [Phage-3232] | – | – | – | – | Phage binding ELISA signal, Anti-PSMA Fab [7]: 1.95; Phage binding ELISA signal, Anti-PSMA Fab with PSMA antigen [8]: 0.0754 |
